This is an account of results in the Immune Epitope Database (IEDB).

Targets include HLA-A*01:01; HLA-A*32:01; HLA-A*30:01; HLA-A*29:02; HLA-A*26:01; HLA-A*30:02; HLA-A*68:02; HLA-B*35:01; HLA-B*51:01; HLA-B*53:01; HLA-B*07:02; HLA-A*03:01.
Assay in all cases: IEDB peptide-MHC binding, purified MHC/competitive/radioactivity; filed as Kd, often an IC50 or EC50 that approximates it; ≥ and ≤ were set here for values at or beyond the usual limits of such assays
In the next assay the target is HLA-B*40:01. The following applies: source organism: Dengue virus 2 Jamaica/1409/1983.
The target in a further assay is HLA-B*44:02. The following applies: source organism: Dengue virus 2 Jamaica/1409/1983.
In the next assay the target is HLA-B*44:03. The conditions noted are these: source organism: Dengue virus 2 Jamaica/1409/1983.
The next assay concerns the target HLA-A*31:01. The conditions noted are these: source organism: Mammarenavirus whitewaterense.
In another assay the target is HLA-A*33:01. The following applies: source organism: Mammarenavirus whitewaterense.
Another assay addresses HLA-A*68:01. The following applies: source organism: Mammarenavirus whitewaterense.
[1] abbreviates: source organism: Mammarenavirus guanaritoense.
[2] abbreviates: source organism: Vaccinia virus WR.
Where [3] appears, read: source organism: Dengue virus 3 Martinique/1243/1999.
Setting [4] is: source organism: Mammarenavirus brazilense.
The mark [5] stands for this setting: source organism: Mammarenavirus lassaense.
[6] abbreviates: source organism: Dengue virus 1 Brazil/97-11/1997.
[7] abbreviates: source organism: Dengue virus 2 Jamaica/1409/1983.
The mark [8] stands for this setting: source organism: Dengue virus 4 Philippines/H241/1956.
The mark [9] stands for this setting: source organism: Dengue virus 2 Peru/IQT2913/1996.
The mark [10] stands for this setting: source organism: Mammarenavirus juninense.
Setting [11] is: source organism: Mammarenavirus whitewaterense.

AVFQPSTGNY: the Kd was not below 27600 nM with HLA-A*01:01 (setting [1]); not below 69900 nM in the assay with HLA-A*32:01 (setting [1]); 12400 nM with HLA-A*30:01 (setting [1]); 819 nM with HLA-A*29:02 (setting [1]); 776 nM with HLA-A*26:01 (setting [1]); 21.5 nM with HLA-A*30:02 (setting [1]).
Regarding ISRFANLIK, in the assay with HLA-A*30:01 (setting [2]), the Kd is 13.4 nM.
On to FLEQQNKIL, for which the Kd with HLA-A*68:02 (source organism: Homo sapiens) was not below 136000 nM.
For the sequence ATFKIQPFL, the Kd with HLA-A*30:01 (setting [3]) was 361 nM.
For EMFKTKGRY, the Kd with HLA-A*01:01 (setting [4]) is not below 32000 nM; with HLA-A*32:01 (setting [4]) it was not below 77800 nM; with HLA-A*30:01 (setting [4]), 8950 nM; in the assay with HLA-A*29:02 (setting [4]), 11500 nM; with HLA-A*26:01 (setting [4]) it was 650 nM; with HLA-A*30:02 (setting [4]) it was 131 nM.
Take KTGECSKCY: the Kd in the assay with HLA-A*01:01 (setting [5]) was 12800 nM; with HLA-A*32:01 (setting [5]) it was 6790 nM; with HLA-A*30:01 (setting [5]) it was 18600 nM; in the assay with HLA-A*29:02 (setting [5]), 10200 nM; with HLA-A*26:01 (setting [5]), not below 77900 nM; in the assay with HLA-A*30:02 (setting [5]) it was 834 nM.
On to MTNGKINSL, for which the Kd with HLA-A*32:01 (setting [2]) stood at 22.3 nM.
With LPDTIETLM, the Kd with HLA-B*35:01 (setting [6]) is 818 nM; with HLA-B*51:01 (setting [6]) it was 19000 nM; with HLA-B*53:01 (setting [6]) it was 428 nM.
Take MAVGMVSIL: in the assay with HLA-B*35:01 (setting [7]), the Kd came out at 10.3 nM.
As to WPLHRMDLGV, the Kd with HLA-B*51:01 (setting [8]) worked out at 3280 nM.
Consider AEISGSSPIL, for which the Kd was 1.04 nM in the assay with HLA-B*40:01, 16100 nM in the assay with HLA-A*30:01 (setting [7]), 6.16 nM with HLA-B*44:02 and 6.75 nM with HLA-B*44:03.
Take ILPVIFLSI: the Kd with HLA-A*32:01 (setting [2]) was found to be 4.49 nM.
Regarding LPPEKCDTL, the Kd with HLA-B*51:01 (setting [3]) came out at 7730 nM.
Turning to IIFFIVLIL, in the assay with HLA-A*32:01 (setting [2]), the Kd was 12.2 nM.
Regarding ITLFLILCY, the Kd with HLA-A*32:01 (setting [2]) is 1800 nM.
Regarding RHRKPTYEK, the Kd with HLA-A*30:01 (setting [8]) was 24.5 nM.
For WAYHGSYEA, the Kd with HLA-B*35:01 (setting [8]) came to 167 nM.
As for TPVESWEEI, the Kd with HLA-B*51:01 (setting [9]) came to 10500 nM; with HLA-B*53:01 (setting [9]) it was 157 nM.
Take VQVLALEPGK: the Kd with HLA-A*30:01 (setting [7]) worked out at 2520 nM.
Regarding RVPNYNLII, in the assay with HLA-A*32:01 (setting [7]), the Kd was 148 nM.
For MQRIISLSV, the Kd with HLA-A*30:01 (setting [2]) came to 8.81 nM.
SVSLVLVGV: the Kd in the assay with HLA-A*68:02 (setting [7]) is 1.05 nM.
For IPNHGVTAT, the Kd with HLA-B*35:01 (setting [8]) is 2280 nM.
As to MPVTVASAA, the Kd was determined as 120 nM in the assay with HLA-B*07:02 (setting [6]) and 8.14 nM with HLA-B*35:01 (setting [6]).
With KSRLNALGK, the Kd was 11.3 nM in the assay with HLA-A*03:01 (setting [7]) and 3.44 nM with HLA-A*30:01 (setting [7]).
Take LAGLFIDAGY: the Kd in the assay with HLA-A*01:01 (setting [10]) is 1640 nM; with HLA-A*32:01 (setting [10]), 14900 nM; with HLA-A*30:01 (setting [10]), 12500 nM; with HLA-A*29:02 (setting [10]), 54.3 nM; in the assay with HLA-A*26:01 (setting [10]), not below 43600 nM; with HLA-A*30:02 (setting [10]), 171 nM.
As to RFASALTAL, in the assay with HLA-B*07:02 (setting [7]), the Kd is 324 nM.
As for KVFVPAPFG, the Kd with HLA-A*30:01 (setting [2]) amounted to 6.64 nM.
Take SSIIRSLPK: the Kd in the assay with HLA-A*03:01 (setting [11]) is 39 nM; with HLA-A*31:01 it was 1720 nM; with HLA-A*33:01, not below 39400 nM; in the assay with HLA-A*30:01 (setting [11]), 180 nM; in the assay with HLA-A*68:01, 223 nM.
On to SGIFVTNEV, for which the Kd in the assay with HLA-A*68:02 (setting [6]) was determined as 46.9 nM.
